Biological target: T1, CTCF (full-length) (UniProt P49711)
T1 sequence: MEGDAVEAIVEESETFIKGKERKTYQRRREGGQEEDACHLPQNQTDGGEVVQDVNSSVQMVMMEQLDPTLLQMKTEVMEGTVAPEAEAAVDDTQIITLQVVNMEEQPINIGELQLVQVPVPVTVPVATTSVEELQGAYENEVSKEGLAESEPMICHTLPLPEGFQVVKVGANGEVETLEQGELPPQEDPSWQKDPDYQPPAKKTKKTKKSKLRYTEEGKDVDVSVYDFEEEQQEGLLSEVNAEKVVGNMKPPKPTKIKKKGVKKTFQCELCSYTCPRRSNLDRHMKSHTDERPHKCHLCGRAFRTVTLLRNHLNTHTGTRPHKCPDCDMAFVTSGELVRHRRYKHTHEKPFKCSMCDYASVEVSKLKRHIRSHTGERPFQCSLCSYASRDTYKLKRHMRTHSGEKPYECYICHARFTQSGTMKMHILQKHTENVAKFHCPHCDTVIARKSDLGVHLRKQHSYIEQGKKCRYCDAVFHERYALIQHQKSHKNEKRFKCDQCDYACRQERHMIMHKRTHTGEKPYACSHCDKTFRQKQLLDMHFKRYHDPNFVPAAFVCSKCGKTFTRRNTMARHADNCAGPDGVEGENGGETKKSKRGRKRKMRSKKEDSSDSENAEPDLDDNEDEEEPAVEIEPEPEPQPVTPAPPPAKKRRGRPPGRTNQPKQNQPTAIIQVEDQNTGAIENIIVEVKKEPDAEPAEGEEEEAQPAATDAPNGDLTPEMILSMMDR
Assay: SPR
Details: 5mC at all CpG (SssI); at least 1000-fold lower than unmethylated; no stable complexes

Sequence | Ka
CGCGKGGTGGCAG (double strand) [DMD4 methylated] | 1e+08 M⁻¹
CGCGKGGTGGCAG (double strand) [DMD7 methylated] | 1e+08 M⁻¹
